Measured values: patent US5807729A, “Metalloprotease having increased activity” (Novo Nordisk A/S, priority 1995, dated 1998)

Experiments:
[1] = system: pro-trypsin-like Fusarium oxysporum protease; assay: Proteolytic enzyme assay: tryptic activity released from pro-trypsin-like protease, L-BAPNA, 405 nm; type: biochemical
Description: Metalloprotease activity is measured as released trypsin activity from pro-trypsin-like Fusarium oxysporum protease deposited at the Deutsche Sammlung von Mikroorganismen, Gottingen, Germany under the number DSM 2672, after a 30-60 min pre-incubation at 25° C. in 0.1M Tris, 2 mM CaCl2, pH 7 (at lower pH, 100 mM borate, 10 mM DMG, 2 mM CaCl2 is used).
Metalloproteases contain a catalytic zinc metal center which participates in the hydrolysis of the peptide backbone. The active zinc center differentiates these proteases from calpains whose activities are dependent upon the presence of calcium. Confirmation of a protease as a metallo-protease is loss of proteolytic activity accomplished by removal of the zinc center with 1,10-phenanthroline (1 mM) followed by titration with Zn^2+ (0.1-100 μM) to restore full activity.
However, when combined the metalloprotease cleaves recombinant pro-trypsin-like Fusarium oxysporum protease disclosed, supra to yield the active tryptic protease. Metalloprotease activity is halted upon the addition of 1 mM 1,10-phenanthroline (Table 1).

FTC-labeled casein [2] = assay: Thermal stability profile, FTC-casein hydrolysis; type: biochemical; conditions: 15 minutes at various temperatures, Universal buffer pH 7; FIG. 9
Description: Purified p45 metalloprotease or B.t. thermolysin (Boehringer Mannheim) (50 microliters, 0.1 mg/ml) are incubated at various temperatures for 15-minutes in Universal buffer, pH 7. Ten microliters of sample are then added to 30 microliters of Universal pH buffer (pH 7) and 20 microliters of FTC-labeled casein and are incubated at 37° C. for 1 hour. 150 microliters of 5% TCA is added to acidify and precipitate casein (1 hour at room temperature). […] Samples are then analyzed on the fluorimeter (slit width=2.5 nm; excitation freq.=490 nm; emission freq.=525 nm; integration time=2 sec).

[3] = system: FAGLA: N-(3-[2-Furyl]Acryloyl)-Gly-Leu amide; assay: FAGLA hydrolysis (345 nm); type: biochemical
Description: The thermolytic substrate FAGLA: N-(3-[2-Furyl]Acryloyl)-Gly-Leu amide is used to further characterize the p45 metalloprotease and B.t. thermolysin. Reaction mixtures contain 100 microliters of N-(3-[2-Furyl]Acryloyl)-Gly-Leu amide (FAGLA) (2 mM) and 100 microliters of various concentrations of either thermolysin (Boehringer Mannheim) or purified p45 metalloprotease. Thermolytic activity is determined as a decrease in absorbance at 345 nm on the recording spectrometer for one minute(Shimadzu, UV160U). The linear range of the assay for thermolysin is 10-500 ug/ml thermolysin in the assay mix.

[4] = system: pro-trypsin-like F. oxysporum protease; assay: Second pH profile, pro-trypsin-like F. oxysporum protease assay; type: biochemical, Fusarium oxysporum; conditions: 15 minutes, room temperature
Description: A second pH profile is determined utilizing the pro-trypsin-like F. oxysporum protease assay whereby p45 metalloprotease activity is determined based on the processing of pro-trypsin-like F. oxysporum protease to active trypsin-like F. oxysporum protease Reaction mixtures contain 125 ug of purified pro-trypsin-like F. oxysporum protease and 0.13 ug of purified p45 metalloprotease (i.e. a molar ratio of pro-trypsin-likeF. oxysporum protease/ p45=1750:1) are added to "universal-buffer" solutions prepared at different pH's (i.e. pH values of 2.72, 4.11, 5.2, 6.05, 6.46, 6.98, 8.18, 9.02, 10.03, and 11.01) and the reaction mixtures are incubated for 15 minutes at room temperature. After incubation, 5 microliters are taken from each sample and added to microtiter wells containing 90 microliters of sample buffer (i.e. 0.1M borate, 2 mM CaCl2, and 10 mM DMG, pH 6.5), and 10 microliters of phosphoramidon (20 ug). […] Phosphoramidon is added to inhibit p45 activity and stop any further maturation of pro-trypsin-like F. oxysporum protease.

succinylated casein = assay: Casein hydrolysis, succinylated casein assay (QuantiCleave, BCA, 600 nm); type: biochemical
Description: 400 ul of casein solution (Pierce) is added to small test tubes along with 100 ul of protease. The tubes are vortexed and incubated at room temperature for 40 minutes. The incubation (and assay) buffer is 0.1 M borate, 2 mM CaCl2, and 10 mM dimethylglutarate, pH 6.5. At the end of the incubation, 60 microliters of trichloroacetic acid (100% w/v) is added, and the tubes are vortexed and centrifuged for 1 minute at 5000×g. 20 microliters of the resulting supernatant is placed into a microtiter plate well with 200 microliters of the BCA working reagent (Pierce). The plates are then vortexed and incubated another 30 minutes, then read at 600 nm using a Biomek 1000 microtiter plate reader.
400 microliters of casein solution (Pierce) are added to small test tubes along with 100 microliters of protease in buffer "A" (0.1M borate, 2 mM CaCl2 and 10 mM dimethylglutaric acid). At the end of the incubation, 60 microliters of trichloroacetic acid (100% w/v) is added, and the tubes are vortexed and centrifuged for 1 minute at 5000×g. 20 microliters of the resulting supernatant is placed into a microtiter plate well with 200 microliters of the BCA working reagent (Pierce). The plates are then vortexed and incubated another 30 minutes, then read at 600 nm using a Biomek 1000 microtiter plate reader.

FTC-labeled casein [5] = assay: pH profile, FTC-casein hydrolysis; type: biochemical
Description: Purified p45 metalloprotease (10 microliters, 0.005 mg/ml) is added to 30 microliters of Universal pH buffer (pH 5-11.5), and 20 microliters of FTC-labeled casein are incubated at 37° C. for 1-hour. 150 microliters of 5% TCA is added to acidify and precipitate casein (1-hour at room temperature). […] Samples are then analyzed on the fluorimeter (slit width=2.5 nm; excitation freq.=490 nm; emission freq.=525 nm; integration time=2 sec).

[6] = system: pro-trypsin-like F. oxysporum protease; assay: p45 metalloprotease pH stability; type: biochemical, Fusarium oxysporum; conditions: 20 minutes pre-incubation at room temperature
Description: To determine the pH stability of the recombinant p45 metalloprotease, the partially-purified p45 metalloprotease is diluted 10-fold into universal buffers at pH's of 3.5,4,4.5, 5.2, 5.64, 6, 7, 8, 9, and 10 and pre-incubated at room temperature for 20 minutes. The pre-incubated samples (10 microliters) are added to 40 microliters of buffer containing 0.1M borate, 2 mM CaCl2, and 10 mM dimethylglutarate, pH 6.5 and 50 microliters of crude A. oryzae broth containing pro-trypsin-like F. oxysporum protease and subsequently incubated another 30 minutes.

B1: p45 Metalloprotease: metalloprotease purified from Fusarium oxysporum DSM 2672 broth, 45 kDa band; also produced recombinantly in A. oryzae (protein)
chain: MRFSDSLLLIGLSSLAGAHPSRRAPNPSPLSKRGLDLEAFKLPPMAEYVPQDEVPDDVSAKVVTKRADYTETAKDLVKSTFPKATFRMVTDHYVGSNGIAHVNFKQTVNGIDIDNADFNVNIGADGEVFSYGNSFYEGKIPGPLTKRDEKDPVDALKDTVDVLSLPVEADKAKAEKKSKNHYTFTGTKGTVSKPEAKLTYLVDENKELKLTWRVETDIVDNWLLTYVNAAKTDEVVGVVDYVNEATYKVYPWGVNDPSKGSRSTVENPWNLAASEFTWLSDGSNNYTTTRGNNGIAQVNPSGGSTYLNNYRPDSPSLKFEYDYSTSTTTPTTYRDASIAQLFYTANKYHDLLYLLGFTEQAGNFQTNNNGQGGVGNDMVILNAQDGSGTNNANFATPADGQPGRMRMYLWTYSTPQRDCSFDAGVVIHEYTHGLSNRLTGGPANSGCLPGGESGGMGEGWGDFMATAIHIQSKDTRASNKVMGDWVYNNAAGIRAYPYSTSLTTNPYTYKSVNSLSGVHAIGTYWATVLYEVMWNLIDKHGKNDADEPKFNNGVPTDGKYLAMKLVVDGMSLQPCNPNMVQARDAIIDADTALTKGANKCEIWKGFAKRGLGTGAKYSASSRTESFALPSGC
- specific activity relative to the conventional Bacillus metalloprotease ([1]; based on absorbance at 280 nm, preparative IEF fraction, FIG. 2): about 10 fold
- tryptic activity of the sample alone ([1]; sample alone): do not contain any tryptic activity
- Tryptic Activity ([1]; without 1,10-phenanthroline, without Zn2+): 1.33 Δ Abs/min × 10^-4
- optimum temperature for hydrolysis of FTC-casein (FTC-labeled casein [2]): 50 °C
- Specific Activity, substrate FAGLA [3]: 0.76 -AU/sec*mg
- specific activity for FAGLA, times lower than that of thermolysin [3]: approximately 250 times
- level of processed pro-trypsin-like protease at pH 6.5 relative to the level at pH 9 [4]: approximately 24%
- pH of maximum levels of processed pro-trypsin-like protease ([4]; molar ratio pro-trypsin/p45 1750:1): 9.5
- Specific Activity, substrate Succinylated Casein (maximal level) (succinylated casein): 0.30 O.D.
- maximum absorbance, casein hydrolysis (succinylated casein; pH 6.5, room temperature, 40 minutes, FIG. 8): around 0.3 O.D. units
- maximum absorbance / maximal hydrolyzed casein relative to the other proteases (succinylated casein; relative to thermolysin, dispase, B.s. neutral metalloprotease, listed as p45): about 60%
- pH at which the protease functions optimally (FTC-labeled casein [5]): ~9.5
- optimum pH for hydrolysis of FTC-casein (FTC-labeled casein [5]; universal pH buffers pH 5-11.5, 37° C., 1 hour, FIG. 10): 9.5
- acceptable pH range (stability) [6]: 6.5-9
- pH at which most stable ([6]; pH 3.5-10): 8
